In the test the target is T1, GFP-FLAG-STAMBPL1 (human, UniProt Q96FJ0 1-436).
T1 construct: STAMBPL1, human, amplified from FLAG-HA-STAMBPL1; GAGAGA linker between GFP and FLAG; also called GFP-STAMBPL1; recombinant STAMBPL1; source: HEK293T, transfected, purified (FLAG M2 resin, 3X FLAG peptide); MEFs, transfected (relocation imaging); not shown: GFP, N-terminal, kept; FLAG, N-terminal, kept
T1 sequence (looked up): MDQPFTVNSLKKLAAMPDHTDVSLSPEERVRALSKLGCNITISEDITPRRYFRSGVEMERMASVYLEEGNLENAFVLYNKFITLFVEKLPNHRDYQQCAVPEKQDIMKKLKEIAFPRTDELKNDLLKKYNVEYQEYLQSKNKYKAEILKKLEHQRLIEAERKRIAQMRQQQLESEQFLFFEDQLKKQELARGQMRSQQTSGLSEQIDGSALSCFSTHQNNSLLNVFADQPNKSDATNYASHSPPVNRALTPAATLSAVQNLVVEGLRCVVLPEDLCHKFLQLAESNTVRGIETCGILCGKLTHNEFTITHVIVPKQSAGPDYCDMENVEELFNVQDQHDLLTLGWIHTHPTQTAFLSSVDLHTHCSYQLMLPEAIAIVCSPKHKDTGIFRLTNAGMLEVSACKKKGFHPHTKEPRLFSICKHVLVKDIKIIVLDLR
The test can be described thus: pull-down; purified GFP-FLAG-STAMBPL1 applied to GST-Rab beads with 100 uM GppNHp or GDP, 4 C, 2 hr, high salt elution, Coomassie stained gel. To be noted: both partners purified.

B1: GST-Rab2A(Q65L) (natural protein, human, UniProt P61019 1-212, looked up)
chain: MAYAYLFKYIIIGDTGVGKSCLLLQFTDKRFQPVHDLTIGVEFGARMITIDGKQIKLQIWDTAGLESFRSITRSYYRGAAGALLVYDITRRDTFNHLTTWLEDARQHSNSNMVIMLIGNKSDLESRREVKKEEGEAFAREHGLIFMETSAKTASNVEEAFINTAKEIYEKIQEGVFDINNEANGIKIGPQHAATNATHAGNQGGQQAGGGCC
notes: with GppNHp; also called GST-Rab2A QL; recombinant Rab2A
With B1, the binding result is reported as “binds”.

The values above are taken from PMC6639074 (eLife, 2019).
